Test system: PC-3 cells
Assay: ssDNA apoptosis ELISA (induction of apoptosis in prostate cancer cells)
Type: cell-based
Conditions: 50 μM, optical density of treated divided by untreated cells
Method: Cells were assayed for Apoptosis using the ssDNA Apoptosis ELISA kit (Chemicon International Inc.). Cells were seeded in 96-well plates (5000 cells/well) and treated with different concentrations of the inhibitors. At different time point, plates were centrifuges at 200 g for 5 min, medium was removed and the cells were fixed with 80% methanol in PBS for 30 min at room temperature. Plates were dried by floating in a waterbath at 37° C. for 20 minutes. 50 μl of Formamide was added to each well and incubate at room temperature for 10 min. Plates were heated to 75° C. in a circulating waterbath for 10 min, cooled in refrigerator for 5 min, and then formamide was removed. […] Plates were monitored for colour development by ABTS using microplate reader at 405 nm.
DNA in apoptotic cells is sensitive to denaturation by formamide in contrast to necrotic cells. […] The specific denaturation was detected with monoclonal antibody to single stranded DNA. Using ssDNA Apoptosis ELISA kit (Chemicon International, Inc.) chimeric compounds were analyzed for their potential to induce apoptosis in PC-3 cells compared to TRAIL (TNF-related apoptosis-inducing ligand), a known apoptotic agent (R&D Systems, Inc.). Results are presented in values of apoptotic index which is calculated by dividing the optical density of treated and untreated cells.

B1: TRAIL: TNF-related apoptosis-inducing ligand, a known apoptotic agent (R&D Systems, Inc.) (protein, UniProt P50591 1-281, looked up)
Tumor necrosis factor ligand …: MAMMEVQGGPSLGQTCVLIVIFTVLLQSLCVAVTYVYFTNELKQMQDKYSKSGIACFLKEDDSYWDPNDEESMNSPCWQVKWQLRQLVRKMILRTSEETISTVQEKQQNISPLVRERGPQRVAAHITGTRGRSNTLSSPNSKNEKALGRKINSWESSRSGHSFLSNLHLRNGELVIHEKGFYYIYSQTYFRFQEEIKENTKNDKQMVQYIYKYTSYPDPILLMKSARNSCWSKDAEYGLYSIYQGGIFELKENDRIFVSVTNEHLIDMDHEASFFGAFLVG
With B1 the “Apoptotic index (48 hours)” value was 2.3.

Reference: patent US7407939B2, “Protein kinase inhibitors comprising ATP mimetics conjugated to peptides or peptidomimetics” (CureGenics Ltd., priority 2001, dated 2008)
